In patent publication US20190352664A1, “COMPOSITIONS AND METHODS FOR CONTROLLING GENE EXPRESSION” (priority 2017, published 2019):

Test system: Arabidopsis
Assay: Ribo-seq and RNA-seq global translatome profiling (translational efficiency TE, mORF/uORF ribo-shift) upon elf18 treatment
Assay type: in vivo
Set-up: key to score (Ribo-shift): Up: ribo-shift up (i.e., increased mORF/uORF ratio); Down: ribo-shift down (i.e., decreased mORF/uORF ratio)
Details: elf18 vs Mock; for score (TE change): translational efficiency fold change, listed as shows 5′ UTR of the transcript

Molecule	score (TE change)	score (Ribo-shift) (shift of mORF/uORF ratio, per uORF)
AT3G03070.1: 5′ UTR of transcript; NADH-ubiquinone oxidoreductase-related (nucleic acid, listed as DNA, chemistry not fully specified, 5′ UTR of transcript; NADH-ubiquinone oxidoreductase-related) DNA: AAATAAATGCGTTGTTTGGTACAGCTTCACGAACAATCTCTCTCTCGATAGATTCTTCTTACCTCTGAATTTCTCGTTGTTGGAACA	TEdown (389 genes displayed decreased TEfc (|z|≥1.5))	
AT3G56010.1: 5′ UTR of transcript (nucleic acid, listed as DNA, chemistry not fully specified, 5′ UTR of transcript) DNA: GTGTTTAGCTTCTTCACTACCACACAGAAACAGAGTTTCCGTCTTTCATCTTCCTCCATATGCGTCGCTCTTAAAAACCTAATTCACA	TEup (448 had increased TEfc)	
AT2G42950.1: 5′ UTR of transcript; Magnesium transporter CorA-like family protein (nucleic acid) DNA: ACATTCATCTCTCTCTCTCAGTCAAATTGTTGTTTTCTTTCTTCGAATCGGTGCAGAAAATTCAGGGAAGTTCTGGGGAAGGTTGTTGCGTTTGACTCCTTTGGCTTAGTTTTCTTTCGAATTCCGTGCTTCCTGATGATCTTACGTGAAATTGCAGCCTAAAATTTCGAGATTGTTTTTTTTACTCAGAAAACGAGATTTGACTGATATGAATCGAAAATCTGTGATTTAAAGTGAAGC	TEdown (389 genes displayed decreased TEfc (|z|≥1.5))	
AT2G35510.1: 5′ UTR of transcript; similar to RCD one 1 (nucleic acid) DNA: CAAGAGTAGACCGCCGACTTAGATTTTTTCGCCGACGAGAGAATATATATAAATGGCTCGTCTTTTTCCAAACGATTTCTTCTTCTTCGTCGTCGCCGGTTTAGGGTTTCCGTTGCTGTAGCAATTTTCTCTCGCTTCTCTCTCCCCTTTTACAGTTTCTCTTATATTGCTCTTGCCTTGCGTCCAATCTCAAGAGTTCATAAGAGTTGACATTTGTGAACATCGAAGAAATACGGTGACGTTTCTTCTCTGATTACTTTTTGCCAACATGAATACTAATGTATTTATCAACAAGTGCTACAGCCTGTTTTTTTCGAAGCTGTTGGTGAGTTCCCATCCTTAGTACTGCTAGACAGTTCGGTGTGTTAGTTGACTTTATATTCAAGGTTATAGGTTTAGTGTTGTTAGTAGAGAAAA	TEup (448 had increased TEfc)	
AT4G11110.1: 5′ UTR of transcript; SPA1-related 2 (nucleic acid) DNA: CTTACTTAAACACAGTCAAATTCATTTTCTGCCTTAGAAAAGATTTTTATCGAAAATCGACGTTTTTGAAAAAACTCAAATTATCGTCGTTTTGTTCTCAGATTTCTTCTGCTCTCTTCTTCTTCTCCTTCTTCTTCGTTCCACCGCCTCTGTTGCTTTATCTTCTTCTTCCTTCCTTCGATTGTTGATTACGTCGGTGGATCTTTGTTCTCCTCTGTGTTGTTTTCATTGCTAGATTTCGTCAATGATTGGCTTCTCACGATTCGATTTTTCCGGCTCCTGTTCTTAATTTCCTCTGAGAGA	TEup (448 had increased TEfc)	
AT1G16700.1: 5′ UTR of transcript; Alpha-helical ferredoxin (nucleic acid) DNA: AAATTAAGAGACATCTGATCGAATTTTGTTCCGACGACCGTGAATCACCAGCAAAGGATTCGTGTCAATGTTCTTGTGAGATCGAACTTTCTCTGGGTTCGTGCAGAAGCTTTGCTTTTTTGAGTATCGCGTTTAAGGCACATCGAAGAAGAGAGACCCTAATTTGATATTTTGAGTTCTATCG	TEdown (389 genes displayed decreased TEfc (|z|≥1.5))	
AT3G63340.1: 5′ UTR of transcript; Protein phosphatase 2C family protein (nucleic acid) DNA: TCTTCTTCTTCGTTTTCAGGCGGGTGGAGGAGCTCAGAGCCTTCCAGAGGTAACCAACCTTTTATTACCGACAAGATTCTGCCACACAATTATTACATATTTTTGTTCCCATGAAGCAATTGTTCCTTTCAAGCATGTTTACGAGCAAAAGAGTGAAAGGGTAGCTTGATTTTTGTCTACTCTAGCTTCATTTTCTGGCGATCTTTACTTGAGATTTAAACATTTTGCTCTCGGATTGATAATAAAGAAGAATTTGGAATATCAGTAGGTTTGGTTAGGACTCTCGGATTCTGTTGTCGGTTAGATATTTGTTTTGTTTAATCCCTAGATTTAGCAGAGAAATCCCTCAAATCTCACACAATCCATGTAAGGAAGAAG	TEdown (389 genes displayed decreased TEfc (|z|≥1.5))	
AT3G15030.1: 5′ UTR of transcript; TCP family transcription factor 4 (nucleic acid) DNA: AGATTTTTTTTTTAAACAAAGAATGGAAAAAAATGAATAAATTTGGGAAACGAGGAAGCTTTGGTTACCCAAAAAAGAAAGAAAGAAAAAATAAAAAAAAATAAAAAGAAAAGCTTTCTCTGGGTTTTTCTTGATTGGTCAATTACACATCTCCCTTTCTCTCTTCTCTCTCTCACCTTCGCTTGCTTTGCTTGCTTCATCTCTTTGGTCTCCTTCTTGCGTTTTCTATTTACTACACAGACCAAACAATAGAGAGAGACTTTAAGCTATAGAAAAAAAGAGAGAGATTCTCTCAAATATGGGTTAGTCCACAATTTTCACTAAACCTCTTCTTCTTAGGATTGTTTTTAGGGTTAGGGTTTTGAGGTGAGGAGAGCAAGTATGCGGGAGTTTCATCCTTTTTGAGTTACTCTGGATTCCTCACCCTCTAACGACGACCACCGTCGCCGCCGCCGCCGCCGTCTCGACGAATATGCTCTACCA	TEdown (389 genes displayed decreased TEfc (|z|≥1.5))	
AT3G55020.1: 5′ UTR of transcript; Ypt/Rab-GAP domain of gyp1p superfamily protein (nucleic acid) DNA: GTCACACATGTAATAAACCTTGGTCGACAATCTCGCCCTTTCCATGTGATTTCTCCACTTCCTCTCTCTCTCTACTGCAACTTCCTCCTCCTGCTTCAACTTCATTCGGGTAATGATGAACTAGCGTAGAGATTTGGATCTTCTTCTTCGTCCTCTCACCAACTCTTCACCGGTTAGATCTCTTTTTCACGCTAACGA	TEup (448 had increased TEfc)	
AT2G47210.1: 5′ UTR of transcript; myb-like transcription factor family protein (nucleic acid) DNA: AAACTGCTGACCGATCCCAAAGGTTGAAAGATTCTTTGGCGCTAAAAAATCCCCAGTTCCCAAATCGGCGTCCTCGTTTGAAACCCTAATTCCTGAATCGAAGCAGATCCTGATCGAATCGAAGGTGTTCGAATGATAGCTACCCAGTAAATTCAGAACCCTAATTAACA	TEdown (389 genes displayed decreased TEfc (|z|≥1.5))	
AT2G35510.1_1: uORF of AT2G35510.1; peptide SEQ ID NO: 11 (nucleic acid, listed as DNA, chemistry not fully specified) DNA: ATGGCTCGTCTTTTTCCAAACGATTTCTTCTTCTTCGTCGTCGCCGGTTTAGGGTTTCCGTTGCTGTAG		Up
AT3G18140.1: 5′ UTR of transcript; Transducin/WD40 repeat-like superfamily protein (nucleic acid) DNA: ATGAGAAAAGCTTGGTAAAAACCCTATTTTTCTTCTTCTCTTCAATTTACAGTTCTCTGCACCTTTTTCTTTCCCCTGTTTTTTGATCCTCAATCACCAAACCCTAGCTTGTTCTTCTGTTGATTATTTCGAAAAGGGGGTTTGTTTGTTTTCTGGGAATCAGCAAAAATCACGAAATGGTTGGTTTAATATTTCAATCGGGATAAAATCGATCGAAA	TEup (448 had increased TEfc)	
